T1: hFGFR2β-Fc (IIIb) (human, UniProt P21802 22-377, biotinylated with biotin-LC-NHS)
T1 construct: also called FGFR2-2β Fc (IIIb)
T1 chain: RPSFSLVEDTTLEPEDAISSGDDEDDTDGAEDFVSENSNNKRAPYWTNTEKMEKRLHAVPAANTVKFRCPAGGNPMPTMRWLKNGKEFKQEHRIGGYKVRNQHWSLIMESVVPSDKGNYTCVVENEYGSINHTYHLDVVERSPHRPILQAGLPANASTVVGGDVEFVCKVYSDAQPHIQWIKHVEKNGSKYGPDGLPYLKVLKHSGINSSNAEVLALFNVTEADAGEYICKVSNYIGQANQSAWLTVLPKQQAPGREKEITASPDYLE

T2: hFGFR2α-Fc (IIIb) (human, UniProt P21802 22-377, biotinylated with biotin-LC-NHS)
T2 construct: Bought, R&D Systems 663-FR, soluble Fc fusion
T2 chain: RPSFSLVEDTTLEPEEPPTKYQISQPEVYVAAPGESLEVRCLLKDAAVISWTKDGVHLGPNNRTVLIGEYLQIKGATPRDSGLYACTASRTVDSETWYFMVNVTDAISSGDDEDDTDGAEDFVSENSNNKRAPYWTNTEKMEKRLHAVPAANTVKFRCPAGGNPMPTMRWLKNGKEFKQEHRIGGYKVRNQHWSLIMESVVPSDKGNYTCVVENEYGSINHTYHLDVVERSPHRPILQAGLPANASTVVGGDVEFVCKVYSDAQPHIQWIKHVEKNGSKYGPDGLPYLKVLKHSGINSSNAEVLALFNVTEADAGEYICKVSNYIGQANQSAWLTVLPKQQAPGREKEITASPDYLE

T3: hFGFR4-Fc (human, UniProt P22455 22-369, biotinylated with biotin-LC-NHS)
T3 construct: Bought, R&D Systems, printed Cat. No. 685-MF
T3 sequence (looked up): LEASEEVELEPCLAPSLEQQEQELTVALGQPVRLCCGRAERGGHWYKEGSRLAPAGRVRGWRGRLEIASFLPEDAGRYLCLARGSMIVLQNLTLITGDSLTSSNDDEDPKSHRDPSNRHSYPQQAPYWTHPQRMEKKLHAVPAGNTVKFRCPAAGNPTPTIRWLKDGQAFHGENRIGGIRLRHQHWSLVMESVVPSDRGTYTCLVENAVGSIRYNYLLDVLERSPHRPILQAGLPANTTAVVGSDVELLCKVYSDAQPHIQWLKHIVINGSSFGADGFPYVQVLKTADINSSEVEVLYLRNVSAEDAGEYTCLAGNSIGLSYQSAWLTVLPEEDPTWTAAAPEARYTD

T4: hFGFR1β-Fc (IIIc) (human, UniProt P11362-14 22-285, limits assumed, biotinylated with biotin-LC-NHS)
T4 construct: Bought, R&D Systems 661-FR
T4 sequence (looked up): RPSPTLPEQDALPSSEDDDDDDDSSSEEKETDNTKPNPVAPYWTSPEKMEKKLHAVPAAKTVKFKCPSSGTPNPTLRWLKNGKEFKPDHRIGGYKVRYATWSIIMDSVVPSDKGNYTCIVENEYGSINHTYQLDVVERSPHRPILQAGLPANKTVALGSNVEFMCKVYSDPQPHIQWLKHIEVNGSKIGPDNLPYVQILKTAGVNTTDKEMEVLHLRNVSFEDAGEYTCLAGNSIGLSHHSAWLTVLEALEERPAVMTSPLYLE

T5: hFGFR3-Fc (IIIb) (human, UniProt P22607-2 23-377, biotinylated with biotin-LC-NHS)
T5 construct: Bought, R&D Systems 1264-FR
T5 sequence (looked up): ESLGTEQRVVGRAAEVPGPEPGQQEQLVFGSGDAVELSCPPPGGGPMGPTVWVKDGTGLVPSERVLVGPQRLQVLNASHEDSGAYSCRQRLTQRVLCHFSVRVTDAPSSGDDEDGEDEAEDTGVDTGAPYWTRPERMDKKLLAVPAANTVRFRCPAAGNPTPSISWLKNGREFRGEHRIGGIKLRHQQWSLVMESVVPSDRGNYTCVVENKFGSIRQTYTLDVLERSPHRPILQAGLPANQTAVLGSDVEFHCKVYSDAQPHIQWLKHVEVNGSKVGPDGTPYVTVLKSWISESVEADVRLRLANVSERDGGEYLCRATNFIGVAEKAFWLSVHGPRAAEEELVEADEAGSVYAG


Key:
[1] = target: T1, hFGFR2β-Fc (IIIb); assay: ELISA, 1 ug/ml Fab on coated antigen; grade of signal to background (+ 2-3, ++ 3-5, +++ >5)
Procedure: (§1) For the ELISA 96-well plates pre-coated with streptavidin (Pierce, 15500) were coated over night at 4° C. with 1 μg/ml biotinylated protein. Wells coated with biotinylated TRAIL-Fc served as a reference. The next day plates were washed 3 times with PBST, treated with blocking reagent, and washed again 3 times with PBST. 100 μl of purified Fabs (1 μg/ml) were added and incubated for 1 h at r.t. After washing 3 times with PBST, an anti-hIgG (Fab-specific) coupled to HRP (1:2500 diluted; Sigma; A 0293) was added and incubated for 1 h at Lt. Color reaction was developed by addition of 50 μl TMB (Invitrogen, 2023) and stopped after 5-15 min by adding 50 μl H₂SO₄ (Merck, 1120801000). Colorimetric reaction was recorded at […] in a plate reader (Tecan). Wells containing TRAIL-Fc were used as background values and the signal to background ratios were calculated as summarized in Table 4.

[2] = target: T2, hFGFR2α-Fc (IIIb); assay: as above
Procedure: as §1

[3] = target: T6, mFGFR2β-Fc (IIIb) (murine, UniProt P21803-2 22-263, limits assumed, biotinylated with biotin-LC-NHS); assay: as above
T6 construct: Bought, R&D Systems 708-MF
T6 sequence (P21803 other isoform, or with tags, fused parts or gaps limits assumed): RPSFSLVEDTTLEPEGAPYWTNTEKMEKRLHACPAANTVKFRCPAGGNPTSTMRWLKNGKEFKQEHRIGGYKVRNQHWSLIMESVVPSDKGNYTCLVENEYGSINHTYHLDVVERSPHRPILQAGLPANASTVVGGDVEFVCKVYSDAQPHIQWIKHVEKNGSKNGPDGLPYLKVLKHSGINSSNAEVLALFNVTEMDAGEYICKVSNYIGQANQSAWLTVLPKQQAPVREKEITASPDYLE
Procedure: as §1

[4] = target: T3, hFGFR4-Fc; assay: ELISA on coated biotinylated Fc fusion
Procedure: as §1

[5] = target: T4, hFGFR1β-Fc (IIIc); assay: ELISA on coated biotinylated Fc fusion
Procedure: as §1

[6] = target: T5, hFGFR3-Fc (IIIb); assay: ELISA on coated biotinylated Fc fusion
Procedure: as §1

[7] = target: T7, recombinant human FGFR2 (Met 1-Glu 377) with C-terminal polyhistidine tag (human, UniProt P21802 22-377); assay: protein binding ELISA; against TPP-1415
T7 construct: The range is that of the expressed DNA and begins at Met 1; also called His-tagged FGFR2; recombinant human FGFR2-IIIc molecule
Text: (§2) Two different types of ELISA were used to determine the binding improvement of mutated variants: a) Peptide Binding ELISA: a synthetic peptide comprising the amino acid sequence of the epitope linked C-terminally to a biotinylated lysine […]-Ttds-Lys(Biotin) (peptide sequence derived from SEQ ID NO:63, synthesized by JPT Peptide Technology GmbH, Berlin, Germany), and b) Recombinant Protein Binding ELISA: recombinant human FGFR2 (DNA sequence of human FGFR2 (NP 000132.3) Met 1-Glu 377, fused with a polyhistidine tag at the C-terminus; #10824-1-1081-1, Sin θ Biological Inc., Beijing, China).
(§3) Briefly, in both ELISA formats MTP plates (384 well Maxisorp, Nunc) were coated with 20 μl, anti-human IgG Fc specific (#12136; sigma) at 2.2 μg/ml for 2.5 h at 37° C. in coating buffer (#121125 Candor Bioscience GmbH). […] Anti-FGFR2 variants were immobilized in concentrations of 0.035 μg/ml (peptide based assay) or 0.2 μg/ml (recombinant human FGFR2 protein based assay) in 10% Smart Block in PBST depending on the format and variants to be analyzed by incubation of 20 μl for one hour at 20-22° C. After one washing step using 50 μl PBST, 20 μl quadruplets of the antigen dilution series in 10% SmartBlock in PBST with a maximum concentration of 100 nM were added and incubated for 1 h at 20-22° C. and the washing step was repeated 3 times. For the detection of the biotinylated epitope peptide 20 μl of streptavidine/POD conjugate (# S5512, Sigma) in a 1:1000 dilution in 10% SmartBlock in PBST were applied for one hour at 20-22° C. For the detection of the recombinant FGFR2 protein 20 μl of anti-His/HRP conjugate (#71840, novagen) in a 1:10000 dilution in 10% SmartBlock in PBST were applied for one hour at 20-22° C. After 3 washing steps 20 μl of 10 μM amplex red substrate (# A12222, Invitrogen) in 50 mM Sodium hydrogen phosphate, pH 7.6, were added and the fluorescence signal was detected using a common fluorescence reader, e.g. Tecan M1000. EC50 values were evaluated by fitting the data (Sigmoida) dose-response, variable slope, bottom set to background; GraphPad Prism software).

[8] = target: T7, recombinant human FGFR2 (Met 1-Glu 377) …; assay: protein binding ELISA, antibody captured by anti-human IgG Fc, FGFR2-His titrated
Text: as §2, §3

Binder | ELISA signal to background ratio [1] | ELISA signal to background ratio [2] | ELISA signal to background ratio [3] | binding result [4] | binding result [5] | binding result [6] | fold EC50 reduction [7] | EC50 [8]
M054-A05 (soluble Fab) (Fab, V domains shown, Soluble Fab from E. coli, purified through its His-tag) VH: EVQLLESGGGLVQPGGSLRLSCAASGFTFSNYGMYWVRQAPGKGLEWVAVISYDGTNKYYVDSVKGRFTISRDNSKNTLYLQMNSLRAEDTAVYYCAKDLPKWGGFDSWGQGTLVTVSS VL: not shown | 3 to 5 ratio | > 5 ratio | > 5 ratio | no binding | no binding | no binding | – | –
M021-H02 (soluble Fab) (Fab, V domains shown, Soluble Fab from E. coli, purified through its His-tag) VH: EVQLLESGGGLVQPGGSLRLSCAASGFTFSNYGIHWVRQAPGKGLEWVAVISYDGSNKYYADSVKGRFTISRDNSKNTLYLQMNSLRAEDTAMYYCARDSSSAEDYWGQGTLVTVSS VL: QSVLTQPPSASGTPGQRVTISCSGSSSNTGSNTVNWYQQLPGTAPKLLIYRNNQRPSGVPDRFSGSKSGTSASLAISGLRSEDEADYYCETWDSNTRGVVFGGGTKLTVL | > 5 ratio | > 5 ratio | > 5 ratio | no binding | no binding | no binding | – | –
TPP-1406 (antibody, human IgG1, lambda, V domains shown, Matured variant of M047-D08) VH: EVQLLESGGGLVQPGGSLRLSCAASGFTFSHSGMHWVRQAPGKGLEWVAVISYDGSNKYYADSVKGRFTISRDNSKNTLYLQMNSLRAEDTAVYYCAREQPLYDFEYWGQGTLVTVSS VL: AQSVLTQPPSASGTPGQRVTISCSGSSSNIGDNGVNWYQQLPGTAPKLLIYGASERPSGVPDRFSGSKSGTSASLAISGLRSEDEADYYCAAWDDSLDGWTFGGGTKLTVLG | – | – | – | – | – | – | 37 fold | 0.22 nM
TPP-1407 (antibody, human IgG1, lambda, V domains shown, Matured variant of M047-D08) VH: EVQLLESGGGLVQPGGSLRLSCAASGFTFSHSGMHWVRQAPGKGLEWVAVISYDGSNKYYADSVKGRFTISRDNSKNTLYLQMNSLRAEDTAVYYCAREQPLYDFEYWGQGTLVTVSS VL: not shown | – | – | – | – | – | – | 35 fold | 0.23 nM
TPP-1409 (antibody, human IgG1, lambda, V domains shown, Matured variant of M047-D08) VH: EVQLLESGGGLVQPGGSLRLSCAASGFTFSTSGMHWVRQAPGKGLEWVAVISYDGSNKYYADSVKGRFTISRDNSKNTLYLQMNSLRAEDTAVYYCARESPGYDFEYWGQGTLVTVSS VL: not shown | – | – | – | – | – | – | 3.8 fold | 2.1 nM
M048-D01 (soluble Fab) (Fab, V domains shown, Soluble Fab from E. coli, purified through its His-tag) VH: EVQLLESGGGLVQPGGSLRLSCAASGFTFSSYAMSWVRQAPGKGLEWVSAISGSGTSTYYADSVKGRFTISRDNSKNTLYLQMNSLRAEDTAVYYCARVRYNWNHGDWFDPWGQGTLVTVSS VL: QSVLTQPPSASGTPGQRVTISCSGSSSNIGNNYVSWYQQLPGTAPKLLIYENYNRPAGVPDRFSGSKSGTSASLAISGLRSEDEADYYCSSWDDSLNYWVFGGGTKLTVL | > 5 ratio | > 5 ratio | > 5 ratio | no binding | no binding | no binding | – | –

Second part, the binder after the results:

ELISA signal to background ratio [1] | ELISA signal to background ratio [2] | ELISA signal to background ratio [3] | binding result [4] | binding result [5] | binding result [6] | fold EC50 reduction [7] | EC50 [8] | Binder
– | – | – | – | – | – | 12 fold | 0.66 nM | TPP-1410 (antibody, human IgG1, lambda, V domains shown, Matured variant of M047-D08) VH: EVQLLESGGGLVQPGGSLRLSCAASGFTFSHSGMHWVRQAPGKGLEWVAVISYDGSNKYYADSVKGRFTISRDNSKNTLYLQMNSLRAEDTAVYYCAREAPGYDFEYWGQGTLVTVSS VL: not shown
– | – | – | – | – | – | 28 fold | 0.29 nM | TPP-1412 (antibody, human IgG1, lambda, V domains shown, Matured variant of M047-D08) VH: EVQLLESGGGLVQPGGSLRLSCAASGFTFSHSGMHWVRQAPGKGLEWVAVISYDGSNKYYADSVKGRFTISRDNSKNTLYLQMNSLRAEDTAVYYCAREAPLYDFEYWGQGTLVTVSS VL: not shown
– | – | – | – | – | – | 13 fold | 0.61 nM | TPP-1411 (antibody, human IgG1, lambda, V domains shown, Matured variant of M047-D08) VH: EVQLLESGGGLVQPGGSMRLSCAASGFTFSSSGMHWVRQAPGKGLEWVAVISYDGSNKYYADSVKGRFTISRDNSKNTLYLQMNSLRAEDTAVYYCAREQPGYDFEYWGQGTLVTVSS VL: not shown

Reference: US20140322220A1 (Bayer, published 2014)
